The source of these data is article PMC10688271, “Molecular details of the CPSF73-CPSF100 C-terminal heterodimer and interaction with Symplekin”.

This data set addresses T1, ec73-CTD12;ec100-CTD12 (Encephalitozoon …, UniProt Q8SUE4;M1JIZ1 452-567;525-639, |).
T1 sequence 1: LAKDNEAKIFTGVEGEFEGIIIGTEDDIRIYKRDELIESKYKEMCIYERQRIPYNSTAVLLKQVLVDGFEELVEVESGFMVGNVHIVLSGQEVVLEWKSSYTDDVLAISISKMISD
T1 sequence 2: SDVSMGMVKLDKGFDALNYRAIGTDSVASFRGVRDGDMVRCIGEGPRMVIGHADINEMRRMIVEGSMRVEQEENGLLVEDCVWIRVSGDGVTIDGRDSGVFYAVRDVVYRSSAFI
Put plainly: EMSA; 50 uM protein, 500 nM nucleic acid; NMR also negative (NMR ligands not specified); EMSA: 20 mM Tris pH 7.5, 150 mM potassium acetate, 1 mM EDTA, 10% glycerol; 30 min incubation; 10% Tris-glycine gel (running buffer 27 mM Tris, 192 mM glycine). As to conditions: protein: recombinant;recombinant, copies: 1;1.

[1] abbreviates: label: 3' Cy3 on forward strand, blunt.

B1: dsDNA-Cy3 (dsDNA)
DNA 1: AGGGTCTCCATTTTGAAGCATGC
DNA 2: GCATGCTTCAAAATGGAGACCCT
Regarding B1, the binding result under setting [1] is reported as “no binding”.

B2: dsRNA-Cy3 (dsRNA)
RNA 1: AGGGUCUCCAUUUUGAAGCAUGC
RNA 2: GCAUGCUUCAAAAUGGAGACCCU
On to B2, for which the binding result under setting [1] is “no binding”.

For AGGGTCTCCATTTTGAAGCATGC (ssDNA) [ssDNA-Cy3], for the setting “label: 3' Cy3, single strand”, the binding result is given as “no binding”.

AGGGUCUCCAUUUUGAAGCAUGC (ssRNA) [ssRNA-Cy3]: the binding result (label: 3' Cy3, single strand) is recorded as “no binding”.
